# B1: Bepranemab (antibody, V domains shown)
# VH: EVQLQESGPGLVKPSETLSLTCTVSGFSLTSNDIAWIRQPPGKGLEWMGTIWTDGSTNYNTAVQSRVTISVDTSKNQFSLKLSSVTAADTAVYYCARHRLYYGAFDYWGQGTMVTVSS
# VL: DIVMTQTPLSLSVTPGQPASISCRSSQSLEYSDGYTYLEWYLQKPGQSPQLLIYEVSNRFSGVPDRFSGSGSGTDFTLKISRVEAEDVGVYYCFQATHNPYTFGQGTKLEIK
# Biological target: Tau preformed fibrils (PFF) (UniProt P10636 2-758)
# Test: BLI
binder,measurement,value
B1,Kd,1.32 nM

# — US20260224676A1 (published 2026)
